According to article PMC4605301, “hSSB1 (NABP2/ OBFC2B) is required for the repair of 8-oxo-guanine by the hOGG1-mediated base excision repair pathway”:

Target: hSSB1 (NABP2/OBFC2B) (Homo sapiens, UniProt Q9BQ15 1-211)
Test: EMSA; 0-2 uM hSSB1; 90 fmol DNA in 10 ul; 8-oxoG opposite C (pairing base inferred); EMSA: 50 mM Tris-HCl pH 7.5, 100 mM KCl, 100 ug/ml BSA, 15 min at 37 C; 8% polyacrylamide gel
Conditions: protein: recombinant; tags: N-terminal His6; label: 5' FAM; blunt

hSSB1 (NABP2/OBFC2B), sequence (Q9BQ15 whole entry): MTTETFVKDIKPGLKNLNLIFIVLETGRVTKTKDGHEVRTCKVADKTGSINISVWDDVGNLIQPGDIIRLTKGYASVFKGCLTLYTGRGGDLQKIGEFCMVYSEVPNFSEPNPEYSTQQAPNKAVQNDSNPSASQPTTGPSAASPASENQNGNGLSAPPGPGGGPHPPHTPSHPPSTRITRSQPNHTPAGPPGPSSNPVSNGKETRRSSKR

B1: 8-oxoG:C dsDNA (dsDNA)
DNA 1: CTCTCCCTTCGCTCCTTTCCTCT
DNA 2: AGAGGAAAGGAGCGAAGGGAGAG
modifications: 8-oxoguanine at position 11 of strand 1 (written G)
- binding result: binds
